Measured values published in the supplement of paper PMC10567573.

B1: HNF4A (parent)
chain: RFSRQCVVDKDKRNQCRYCRLKKC
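Further: lentivirally expressed fusions sorted by FACS into six bins by GFP to DsRed ratio, PSI derived from sequencing read proportions per bin multiplied by bin number.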

Variants of: B1
Experiment: protein stability index of a GFP-peptide fusion (GPS, HEK-293T) (PSI 1-6); higher = more stable
Conditions: c terminus: a fixed tail appended
Variant RFSRQDVVDKDKRNQCRYCRLKKC has a protein stability index of 2.47.
RFSRQAVVDKDKRNQCRYCRLKKC gave a protein stability index of 3.24.
Work on RHSRQCVVDKDKRNQCRYCRLKKC yielded a protein stability index of 3.34.
RQSRQCVVDKDKRNQCRYCRLKKC showed a protein stability index of 3.63.
RISRQCVVDKDKRNQCRYCRLKKC showed a protein stability index of 2.39.
With RASRQCVVDKDKRNQCRYCRLKKC the protein stability index was 3.77.
With RRSRQCVVDKDKRNQCRYCRLKKC the protein stability index was 3.37.
With RYSRQCVVDKDKRNQCRYCRLKKC the protein stability index was 3.32.
RMSRQCVVDKDKRNQCRYCRLKKC gave a protein stability index of 2.89.
For RGSRQCVVDKDKRNQCRYCRLKKC, the protein stability index was 2.96.
For RWSRQCVVDKDKRNQCRYCRLKKC, the protein stability index was 2.37.
RSSRQCVVDKDKRNQCRYCRLKKC showed a protein stability index of 4.23.
RKSRQCVVDKDKRNQCRYCRLKKC gave a protein stability index of 3.31.
RESRQCVVDKDKRNQCRYCRLKKC gave a protein stability index of 3.6.
For RNSRQCVVDKDKRNQCRYCRLKKC, the protein stability index was 3.39.
For RTSRQCVVDKDKRNQCRYCRLKKC, the protein stability index was 3.08.
RDSRQCVVDKDKRNQCRYCRLKKC showed a protein stability index of 3.45.
For RVSRQCVVDKDKRNQCRYCRLKKC, the protein stability index was 2.37.
In the case of RPSRQCVVDKDKRNQCRYCRLKKC, the protein stability index is reported as 3.45.
In the case of RLSRQCVVDKDKRNQCRYCRLKKC, the protein stability index is reported as 3.06.
Variant RFSRTCVVDKDKRNQCRYCRLKKC has a protein stability index of 2.16.
RFSRGCVVDKDKRNQCRYCRLKKC showed a protein stability index of 2.38.
In the case of RFSRYCVVDKDKRNQCRYCRLKKC, the protein stability index is reported as 2.22.
Work on RFSRSCVVDKDKRNQCRYCRLKKC yielded a protein stability index of 2.96.
Work on RFSRPCVVDKDKRNQCRYCRLKKC yielded a protein stability index of 2.39.
Variant RFSRDCVVDKDKRNQCRYCRLKKC has a protein stability index of 2.3.
Work on RFSRHCVVDKDKRNQCRYCRLKKC yielded a protein stability index of 2.5.
In the case of RFSRMCVVDKDKRNQCRYCRLKKC, the protein stability index is reported as 3.11.
With RFSRVCVVDKDKRNQCRYCRLKKC the protein stability index was 2.26.
Work on RFSRWCVVDKDKRNQCRYCRLKKC yielded a protein stability index of 2.4.
Variant RFSRICVVDKDKRNQCRYCRLKKC has a protein stability index of 2.16.
With RFSRFCVVDKDKRNQCRYCRLKKC the protein stability index was 2.18.
With RFSRNCVVDKDKRNQCRYCRLKKC the protein stability index was 2.6.
In the case of RFSRKCVVDKDKRNQCRYCRLKKC, the protein stability index is reported as 2.43.
With RFSRRCVVDKDKRNQCRYCRLKKC the protein stability index was 2.83.
With RFSRLCVVDKDKRNQCRYCRLKKC the protein stability index was 2.56.
In the case of RFSRACVVDKDKRNQCRYCRLKKC, the protein stability index is reported as 2.24.
Work on RFSRECVVDKDKRNQCRYCRLKKC yielded a protein stability index of 3.29.
For RFSRCCVVDKDKRNQCRYCRLKKC, the protein stability index was 2.04.
Work on RFARQCVVDKDKRNQCRYCRLKKC yielded a protein stability index of 2.59.
Work on RFNRQCVVDKDKRNQCRYCRLKKC yielded a protein stability index of 2.76.
RFTRQCVVDKDKRNQCRYCRLKKC showed a protein stability index of 2.67.
In the case of RFIRQCVVDKDKRNQCRYCRLKKC, the protein stability index is reported as 2.77.
With RFQRQCVVDKDKRNQCRYCRLKKC the protein stability index was 2.5.
In the case of RFLRQCVVDKDKRNQCRYCRLKKC, the protein stability index is reported as 2.08.
Work on RFCRQCVVDKDKRNQCRYCRLKKC yielded a protein stability index of 3.62.
Variant RFGRQCVVDKDKRNQCRYCRLKKC has a protein stability index of 2.34.
RFERQCVVDKDKRNQCRYCRLKKC gave a protein stability index of 3.07.
For RFYRQCVVDKDKRNQCRYCRLKKC, the protein stability index was 2.95.
Variant RFWRQCVVDKDKRNQCRYCRLKKC has a protein stability index of 1.52.
RFFRQCVVDKDKRNQCRYCRLKKC gave a protein stability index of 1.91.
Variant RFDRQCVVDKDKRNQCRYCRLKKC has a protein stability index of 2.58.
RFHRQCVVDKDKRNQCRYCRLKKC gave a protein stability index of 2.7.
For RFVRQCVVDKDKRNQCRYCRLKKC, the protein stability index was 2.17.
For RFPRQCVVDKDKRNQCRYCRLKKC, the protein stability index was 3.26.
RFKRQCVVDKDKRNQCRYCRLKKC gave a protein stability index of 3.33.
Work on RFRRQCVVDKDKRNQCRYCRLKKC yielded a protein stability index of 3.1.
Work on RFMRQCVVDKDKRNQCRYCRLKKC yielded a protein stability index of 2.33.
For RFSMQCVVDKDKRNQCRYCRLKKC, the protein stability index was 2.91.
With RFSCQCVVDKDKRNQCRYCRLKKC the protein stability index was 3.38.
Work on RFSDQCVVDKDKRNQCRYCRLKKC yielded a protein stability index of 2.27.
For RFSNQCVVDKDKRNQCRYCRLKKC, the protein stability index was 2.53.
Variant RFSKQCVVDKDKRNQCRYCRLKKC has a protein stability index of 2.58.
In the case of RFSFQCVVDKDKRNQCRYCRLKKC, the protein stability index is reported as 1.9.
With RFSQQCVVDKDKRNQCRYCRLKKC the protein stability index was 2.8.
RFSSQCVVDKDKRNQCRYCRLKKC gave a protein stability index of 2.44.
Work on RFSIQCVVDKDKRNQCRYCRLKKC yielded a protein stability index of 1.85.
Work on RFSLQCVVDKDKRNQCRYCRLKKC yielded a protein stability index of 1.79.
With RFSEQCVVDKDKRNQCRYCRLKKC the protein stability index was 2.6.
For RFSVQCVVDKDKRNQCRYCRLKKC, the protein stability index was 2.59.
Work on RFSHQCVVDKDKRNQCRYCRLKKC yielded a protein stability index of 3.57.
Work on RFSTQCVVDKDKRNQCRYCRLKKC yielded a protein stability index of 1.62.
RFSWQCVVDKDKRNQCRYCRLKKC gave a protein stability index of 2.4.
For RFSPQCVVDKDKRNQCRYCRLKKC, the protein stability index was 1.54.
Variant RFSGQCVVDKDKRNQCRYCRLKKC has a protein stability index of 2.6.
Variant HFSRQCVVDKDKRNQCRYCRLKKC has a protein stability index of 3.54.
VFSRQCVVDKDKRNQCRYCRLKKC showed a protein stability index of 1.53.
With IFSRQCVVDKDKRNQCRYCRLKKC the protein stability index was 2.65.
YFSRQCVVDKDKRNQCRYCRLKKC gave a protein stability index of 2.19.
In the case of WFSRQCVVDKDKRNQCRYCRLKKC, the protein stability index is reported as 2.21.
TFSRQCVVDKDKRNQCRYCRLKKC showed a protein stability index of 2.24.
Variant MFSRQCVVDKDKRNQCRYCRLKKC has a protein stability index of 1.54.
Work on DFSRQCVVDKDKRNQCRYCRLKKC yielded a protein stability index of 2.59.
NFSRQCVVDKDKRNQCRYCRLKKC showed a protein stability index of 2.44.
For KFSRQCVVDKDKRNQCRYCRLKKC, the protein stability index was 2.4.
GFSRQCVVDKDKRNQCRYCRLKKC gave a protein stability index of 2.64.
Work on LFSRQCVVDKDKRNQCRYCRLKKC yielded a protein stability index of 2.31.
With FFSRQCVVDKDKRNQCRYCRLKKC the protein stability index was 1.94.
CFSRQCVVDKDKRNQCRYCRLKKC showed a protein stability index of 2.95.
Variant SFSRQCVVDKDKRNQCRYCRLKKC has a protein stability index of 2.18.
Variant QFSRQCVVDKDKRNQCRYCRLKKC has a protein stability index of 2.66.
For AFSRQCVVDKDKRNQCRYCRLKKC, the protein stability index was 2.4.
Variant EFSRQCVVDKDKRNQCRYCRLKKC has a protein stability index of 3.43.
With PFSRQCVVDKDKRNQCRYCRLKKC the protein stability index was 2.5.
